This note sets out measurements from patent publication US10654893B2, “Self-assembling peptide compositions” (3-D MATRIX, LTD., priority 2014, dated 2020).

Common to all, as to type: physicochemical
The nature of series [1]: Rheometer stress sweep test of peptide compositions at selected concentrations (AR500, 40 mm plates). As to conditions: 37° C.; for Loss Modulus (G″) / Storage Modulus (G′): at 1 Pa of oscillation stress, 10 rad/s; for Max. Viscosity (max η′): maximum in range of measured stress; for Yield Stress: stress sweep 10 rad/s. The protocol:
The present Example further describes measurement of various rheological properties of certain peptide compositions at selected concentrations using a rheometer (AR500, TA Instruments) with 40 mm plates. A peptide composition (700 μL) was placed on the rheometer plate and excess composition was gently removed by Kimwipes. Measurements were performed after 2 minutes of relaxation time at 37° C. Storage modulus, loss modulus, and viscosity (η′) were measured at 37° C. with the plates placed at a measuring geometry gap of 300 μm, and stress sweep tests were performed at 0.1 Pa˜1000 Pa of oscillation stress with angular frequency at 10 rad/s.
Results are shown in FIGS. 2-4 for RADA16 (SEQ ID NO:1), IEIK13 (SEQ ID NO:3), and KLD12 (SEQ ID NO:2).

The nature of series [2]: Rheological properties (stiffness, storage modulus, viscosity) at selected pH levels. The method, then:
Rheological properties of certain peptide compositions were observed before and after adjusting their pH levels to 3.4 (RADA16 (SEQ ID NO:1) and KLD12 (SEQ ID NO:2)) or 3.7 (IEIK13 (SEQ ID NO:3)). Rheological properties of peptides were evaluated using a rheometer (AR500, TA Instruments) with 40 mm plates. Specifically, a peptide composition (700 μL) was placed on the rheometer plate and excess composition was gently removed by Kimwipes. Measurements were performed after 2 minutes of relaxation time at 37° C. RADA16 (SEQ ID NO:1), KLD12 (SEQ ID NO:2) and IEIK13 (SEQ ID NO:3) compositions at elevated pH were stiffer than those at 2.5 (RADA16 (SEQ ID NO:1)), 2.0 (KLD12 (SEQ ID NO:2)), and 2.1 (IEIK13 (SEQ ID NO:3)).
Storage modulus of certain peptide compositions at selected pH levels were evaluated using a rheometer (DHR-1, TA Instruments) with 20 mm plates. […] Determined storage moduli for tested peptide compositions are shown in FIG. 18 for RADA16 (SEQ ID NO:1) and FIG. 19 for IEIK13 (SEQ ID NO:3), respectively.
Viscosities of 1% IEIK13 (SEQ ID NO:3) compositions at selected pH levels were evaluated using a rheometer (DHR-1, TA Instruments) with 20 mm plates.

Series [3] can be described thus: Stiffness and reversibility of RADA16 compositions with salts. The protocol: FIGS. 41A-41D depict the protocol used to follow peptide dissolution and to assess effects of particular anions and/or cations, and/or their concentration, on certain RADA16 (SEQ ID NO:1) compositions. As shown, peptide powder in a vial was dissolved in deionized water with vortexing and sonication. The particular peptide composition utilized in this Example was a 1% composition of RADA16 (SEQ ID NO:1) that was mixed at a 1:1 ratio with a 2× salt solution to obtain a final concentration of 0.5% RADA16 (SEQ ID NO:1) and the desired molar concentration of salt.
The protocol depicted in FIGS. 41A-41D was followed to analyze stiffness of peptide compositions containing either 2.5% RADA16 (SEQ ID NO:1) and no added salt or 2.5% RADA16 (SEQ ID NO:1) and 0.125 M CaCl2. Results are shown in FIG. 44, which provides a basic understanding of the viscoelastic properties of the resulting compositions.
The protocol depicted in FIGS. 41A-41D was followed to prepare solutions of 0.5% RADA16 mixed with 0.125, 0.25, or 0.5 M CaCl2 were prepared. The compositions were subjected to mechanical stress through vortexing and sonication, so that their structure was thoroughly disrupted (e.g., randomized). Disrupted compositions were then placed at room temperature for 48 hours to allow self-assembly to take place.

Series [4] is described as follows: Compositions with 0.9% NaCl at pH 3.4 (combined salt and pH). The method, then: IEIK13 (SEQ ID NO:3), KLD12 (SEQ ID NO:2), and RADA16 (SEQ ID NO:1) were dissolved in salt buffer (e.g. NaCl) and kept at elevated pH level adjusted with alkali salt buffer (e.g. NaOH). The compositions had their pH levels about 2.5-4.0 and lower ionic strength than their critical points. With respect to RADA16 (SEQ ID NO:1), KLD12 (SEQ ID NO:2) and IEIK13 (SEQ ID NO:3), peptide compositions were still clear with 0.9% NaCl (i.e. ionic strength of 0.15 M) at pH 3.4 (adjusted with NaOH). Rheological properties of RADA16 (SEQ ID NO:1) with 0.9% NaCl at pH 3.4 were stiffer than those of RADA16 control (i.e. no ionic strength and pH elevation) and RADA16 (SEQ ID NO:1) with 0.9% NaCl (no pH elevation).

Take “Arg-Ala-Asp-Ala-Arg-Ala-Asp-Ala-Arg-Ala-Asp-Ala-Arg-Ala-Asp-Ala [RADA16]”: in series [1] (Conc. 1%), the “Loss Modulus (G″)” value is recorded as 12 Pa, the “Storage Modulus (G′)” value was 74 Pa, the “Max. Viscosity (max η′)” value was 2.3 Pa · s and the “Yield Stress” value is reported as 15.9 Pa. Further, in series [1] (Conc. 1.5%), the “Loss Modulus (G″)” value was determined as 30 Pa, the “Storage Modulus (G′)” value is 158 Pa, the “Max. Viscosity (max η′)” value was 3.4 Pa · s and the “Yield Stress” value was 20.0 Pa. Also, in series [1] (Conc. 2%), the “Loss Modulus (G″)” value was determined as 39 Pa, the “Storage Modulus (G′)” value stood at 217 Pa, the “Max. Viscosity (max η′)” value is 4.0 Pa · s and the “Yield Stress” value is reported as 31.6 Pa. In addition, in series [1] (Conc. 2.5%), the “Loss Modulus (G″)” value stood at 53 Pa, the “Storage Modulus (G′)” value is listed as 352 Pa, the “Max. Viscosity (max η′)” value was determined as 5.6 Pa · s and the “Yield Stress” value turned out to be 50.1 Pa. In addition, the “Storage modulus as a function of pH” value in series [2] (DHR-1, 20 mm plates, 2.5% RADA16, 1.5% IEIK13 (FIGS. 18, 19)) is reported as “increased with pH increase up to 3.4”. In addition, the “Stiffness at elevated pH versus unadjusted pH” value in series [2] (pH 3.4 (RADA16, KLD12) or 3.7 (IEIK13) versus 2.5 (RADA16), 2.0 (KLD12), 2.1 (IEIK13), stress sweep) is listed as “stiffer”. In addition, the “Reversibility after mechanical perturbation” value in series [3] (0.5% RADA16, 0.125 or 0.25 M CaCl2, vortexing and sonication, 48 hours at room temperature) is given as “reversibility can be maintained”. Besides, in series [3] (0.5% RADA16, 0.5 M CaCl2, vortexing and sonication, 48 hours at room temperature), the Stiffness after disruption entry is on record as “dramatically less stiffness”. Besides, the “Stiffness with salt versus no added salt” value in series [3] (2.5% RADA16 and 0.125 M CaCl2 versus 2.5% RADA16) was “noticeable increase in stiffness”. In series [4] (0.9% NaCl (ionic strength of 0.15 M) at pH 3.4 (adjusted with NaOH)), the Appearance of composition entry was “still clear”. The “Stiffness versus control and versus 0.9% NaCl without pH elevation” value in series [4] (0.9% NaCl at pH 3.4, 2.5% (FIG. 40)) is “stiffer”.
